# Test results reported in article PMC10703783, “Programmed cell death 11 modulates but not entirely relies on p53-HDM2 loop to facilitate G2/M transition in colorectal cancer cells” (Oncogenesis, 2023).
# B1: His-S-tagged PDCD11 (1033-1431) (domain or fragment, human, UniProt Q14690 1033-1431, looked up)
# chain: LSIGDMVTGTVKSIKPTHVVVTLEDGIIGCIHASHILDDVPEGTSPTTKLKVGKTVTARVIGGRDMKTFKYLPISHPRFVRTIPELSVRPSELEDGHTALNTHSVSPMEKIKQYQAGQTVTCFLKKYNVVKKWLEVEIAPDIRGRIPLLLTSLSFKVLKHPDKKFRVGQALRATVVGPDSSKTLLCLSLTGPHKLEEGEVAMGRVVKVTPNEGLTVSFPFGKIGTVSIFHMSDSYSETPLEDFVPQKVVRCYILSTADNVLTLSLRSSRTNPETKSKVEDPEINSIQDIKEGQLLRGYVGSIQPHGVFFRLGPSVVGLARYSHVSQHSPSKKALYNKHLPEGKLLTARVLRLNHQKNLVELSFLPGDTGKPDVLSASLEGQLTKQEERKTEAEERDQKG
# notes: source: expressed and purified
# B2: GST-tagged HDM2 (349-497) (domain or fragment, UniProt Q00987-11 349-497, looked up)
# chain: EKAKLENSTQAEEGFDVPDCKKTIVNDSRESCVEENDDKITQASQSQESEDYSQPSTSSSIIYSSQEDVKEFEREETQDKEESVESSLPLNAIEPCVICQGRPKNGCIVHGKTGHLMACFTCAKKLKKRNKPCPVCRQPIQMIVLTYFP
# notes: as for B1
# How the values were obtained:
# Assay in all cases: pull-down; GST pulldown in vitro; GST-tagged p53 or HDM2 (full length or truncations) as bait, His-S-tagged PDCD11 (full length or truncations) as prey
# Details in all cases: both partners purified
# [1] = target: T1, GST-tagged full-length HDM2 (UniProt Q00987-11 1-497)
# T1 construct: HDM2, full length; also called HDM2-FL; GST-HDM2; source: expressed and purified
# [2] = target: T2, His-S-tagged full-length PDCD11 (programmed cell death 11) (human, UniProt Q14690 1-1871)
# T2 construct: programmed cell death 11 (PDCD11), human, Gene ID 22984, 1871 amino acids, full length; also called PDCD11-FL; ALG-4; source: expressed and purified
# [3] = target: B1
# T2 sequence (Q14690 whole entry): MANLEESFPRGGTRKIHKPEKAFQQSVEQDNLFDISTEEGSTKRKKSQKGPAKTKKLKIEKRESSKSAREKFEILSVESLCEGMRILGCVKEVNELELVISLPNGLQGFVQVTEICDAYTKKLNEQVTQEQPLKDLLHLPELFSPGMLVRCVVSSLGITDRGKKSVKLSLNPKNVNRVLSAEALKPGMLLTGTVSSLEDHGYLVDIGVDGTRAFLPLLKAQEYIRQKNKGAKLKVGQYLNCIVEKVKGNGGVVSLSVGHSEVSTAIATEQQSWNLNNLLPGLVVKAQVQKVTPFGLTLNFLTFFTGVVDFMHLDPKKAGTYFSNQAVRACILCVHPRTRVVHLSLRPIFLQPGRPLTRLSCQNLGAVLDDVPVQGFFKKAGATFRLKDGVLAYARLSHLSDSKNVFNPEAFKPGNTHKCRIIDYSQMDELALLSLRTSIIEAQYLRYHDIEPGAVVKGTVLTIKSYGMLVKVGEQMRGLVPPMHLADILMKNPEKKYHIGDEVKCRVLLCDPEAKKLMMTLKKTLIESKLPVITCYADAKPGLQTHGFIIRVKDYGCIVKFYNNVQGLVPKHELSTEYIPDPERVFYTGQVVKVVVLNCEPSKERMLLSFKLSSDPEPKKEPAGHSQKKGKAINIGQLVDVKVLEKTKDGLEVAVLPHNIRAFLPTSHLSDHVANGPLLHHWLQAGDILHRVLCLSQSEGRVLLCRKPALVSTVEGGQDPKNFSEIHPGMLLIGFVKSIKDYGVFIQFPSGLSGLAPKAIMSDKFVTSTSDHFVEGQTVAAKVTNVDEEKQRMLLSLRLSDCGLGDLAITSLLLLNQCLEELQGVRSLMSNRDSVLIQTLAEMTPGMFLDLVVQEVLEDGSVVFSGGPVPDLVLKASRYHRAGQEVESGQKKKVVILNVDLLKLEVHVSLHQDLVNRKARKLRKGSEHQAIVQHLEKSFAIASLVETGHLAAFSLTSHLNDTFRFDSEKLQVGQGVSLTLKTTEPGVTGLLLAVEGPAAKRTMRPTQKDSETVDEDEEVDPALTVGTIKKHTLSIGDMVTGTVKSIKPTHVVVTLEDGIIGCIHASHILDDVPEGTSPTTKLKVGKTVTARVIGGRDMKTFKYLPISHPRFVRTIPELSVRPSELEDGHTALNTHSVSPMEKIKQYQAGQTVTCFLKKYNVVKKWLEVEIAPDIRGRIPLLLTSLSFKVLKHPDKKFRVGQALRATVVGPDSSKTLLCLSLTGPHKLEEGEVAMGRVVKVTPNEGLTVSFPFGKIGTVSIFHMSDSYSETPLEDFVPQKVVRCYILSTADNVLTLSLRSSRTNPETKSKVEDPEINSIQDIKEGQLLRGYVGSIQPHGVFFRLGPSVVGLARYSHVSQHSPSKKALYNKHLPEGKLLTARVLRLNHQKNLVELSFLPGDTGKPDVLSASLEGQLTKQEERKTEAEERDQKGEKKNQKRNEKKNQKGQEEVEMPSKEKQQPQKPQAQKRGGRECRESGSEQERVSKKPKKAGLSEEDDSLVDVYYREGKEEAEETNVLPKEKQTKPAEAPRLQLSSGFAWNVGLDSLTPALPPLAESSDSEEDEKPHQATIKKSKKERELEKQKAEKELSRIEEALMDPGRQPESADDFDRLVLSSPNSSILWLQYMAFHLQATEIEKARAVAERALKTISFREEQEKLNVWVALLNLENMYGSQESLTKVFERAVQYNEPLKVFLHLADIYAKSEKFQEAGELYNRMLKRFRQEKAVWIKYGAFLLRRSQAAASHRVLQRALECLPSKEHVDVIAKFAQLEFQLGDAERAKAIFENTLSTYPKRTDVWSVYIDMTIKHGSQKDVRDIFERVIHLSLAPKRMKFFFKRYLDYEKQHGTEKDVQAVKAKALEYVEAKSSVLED
binding result [1],binding result [3],Binder,binding result [2]
binds,,B1,
,binds,B2,binds
